Measurements as given in paper PMC8441146, “DNA-guided photoactivatable probe-based chemical proteomics reveals the reader protein of mRNA methylation”.

Legend:
DDX1 lacking D2 domain = molecular target: T1, DDX1 lacking D2 domain (UniProt Q92499 1-450); experiment: ITC; ITC: 20 mM Tris pH 7.5, 150 mM NaCl, 25 C; YTH labelling: 3 uM YTH, 12 uM BP/CP (200 mM NaCl chosen after optimization); pull-down: HeLa RIPA lysate, 4 C, UV 6; conditions: protein: recombinant; tags: pET28a, Ni-NTA purified (His)
T1 sequence: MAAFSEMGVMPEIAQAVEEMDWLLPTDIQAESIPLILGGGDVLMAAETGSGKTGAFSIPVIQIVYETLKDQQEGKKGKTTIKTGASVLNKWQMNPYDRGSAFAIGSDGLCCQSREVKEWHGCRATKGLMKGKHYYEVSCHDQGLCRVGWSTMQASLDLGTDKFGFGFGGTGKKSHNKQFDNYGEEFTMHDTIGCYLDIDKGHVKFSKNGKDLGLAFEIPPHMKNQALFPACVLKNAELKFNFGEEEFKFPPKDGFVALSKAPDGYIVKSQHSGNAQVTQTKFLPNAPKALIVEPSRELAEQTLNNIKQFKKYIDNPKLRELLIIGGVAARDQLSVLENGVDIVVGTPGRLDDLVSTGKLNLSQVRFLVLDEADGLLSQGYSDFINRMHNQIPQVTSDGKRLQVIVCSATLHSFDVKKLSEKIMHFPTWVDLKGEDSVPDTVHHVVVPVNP

DDX1 = molecular target: T2, DDX1 (UniProt Q92499 1-728); experiment: as above; conditions: protein: recombinant; tags: pET28a, Ni-NTA purified (His)
T2 sequence: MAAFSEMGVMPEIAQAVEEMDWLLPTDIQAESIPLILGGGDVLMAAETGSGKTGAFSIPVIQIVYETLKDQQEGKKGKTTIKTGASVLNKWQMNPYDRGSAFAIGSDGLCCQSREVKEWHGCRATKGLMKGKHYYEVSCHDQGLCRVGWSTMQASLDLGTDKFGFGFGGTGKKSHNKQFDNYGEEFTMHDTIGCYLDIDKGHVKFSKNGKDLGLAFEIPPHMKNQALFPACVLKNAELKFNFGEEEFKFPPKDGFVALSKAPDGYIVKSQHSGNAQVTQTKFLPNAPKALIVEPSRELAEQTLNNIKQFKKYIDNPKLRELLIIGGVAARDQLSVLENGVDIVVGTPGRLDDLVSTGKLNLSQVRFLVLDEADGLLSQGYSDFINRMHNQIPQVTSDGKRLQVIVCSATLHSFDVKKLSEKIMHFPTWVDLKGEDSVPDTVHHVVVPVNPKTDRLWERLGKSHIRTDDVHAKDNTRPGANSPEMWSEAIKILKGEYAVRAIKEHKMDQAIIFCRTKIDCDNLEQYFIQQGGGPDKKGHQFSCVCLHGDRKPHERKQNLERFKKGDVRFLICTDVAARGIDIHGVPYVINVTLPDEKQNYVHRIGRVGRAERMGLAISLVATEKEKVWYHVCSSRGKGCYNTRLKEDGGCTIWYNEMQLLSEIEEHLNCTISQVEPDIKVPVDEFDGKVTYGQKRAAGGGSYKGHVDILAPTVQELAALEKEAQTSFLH

AAGAUC (ssRNA, 2'-O-methyl A) [Am-modified ssRNA (ITC)]
binding result (DDX1 lacking D2 domain): no binding
binding result (DDX1): binds
